Laboratory results: US20170306050

How the values were obtained:
α1-antitrypsin = α1-antitrypsin (UniProt P01009)
Sequence of α1-antitrypsin (P01009 whole entry, looked up): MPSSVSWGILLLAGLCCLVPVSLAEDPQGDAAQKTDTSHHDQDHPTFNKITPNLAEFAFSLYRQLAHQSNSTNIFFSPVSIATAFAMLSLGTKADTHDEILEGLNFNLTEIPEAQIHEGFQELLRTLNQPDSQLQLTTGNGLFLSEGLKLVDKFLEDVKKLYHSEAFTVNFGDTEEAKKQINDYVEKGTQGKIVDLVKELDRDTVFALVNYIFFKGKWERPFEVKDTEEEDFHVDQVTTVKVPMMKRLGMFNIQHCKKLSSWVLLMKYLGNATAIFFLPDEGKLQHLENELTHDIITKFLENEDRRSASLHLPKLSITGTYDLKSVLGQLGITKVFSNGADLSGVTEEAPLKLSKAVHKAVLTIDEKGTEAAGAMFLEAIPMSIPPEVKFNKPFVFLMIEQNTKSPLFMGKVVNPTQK

Sequence of active MMP9 (chain, as listed by the source): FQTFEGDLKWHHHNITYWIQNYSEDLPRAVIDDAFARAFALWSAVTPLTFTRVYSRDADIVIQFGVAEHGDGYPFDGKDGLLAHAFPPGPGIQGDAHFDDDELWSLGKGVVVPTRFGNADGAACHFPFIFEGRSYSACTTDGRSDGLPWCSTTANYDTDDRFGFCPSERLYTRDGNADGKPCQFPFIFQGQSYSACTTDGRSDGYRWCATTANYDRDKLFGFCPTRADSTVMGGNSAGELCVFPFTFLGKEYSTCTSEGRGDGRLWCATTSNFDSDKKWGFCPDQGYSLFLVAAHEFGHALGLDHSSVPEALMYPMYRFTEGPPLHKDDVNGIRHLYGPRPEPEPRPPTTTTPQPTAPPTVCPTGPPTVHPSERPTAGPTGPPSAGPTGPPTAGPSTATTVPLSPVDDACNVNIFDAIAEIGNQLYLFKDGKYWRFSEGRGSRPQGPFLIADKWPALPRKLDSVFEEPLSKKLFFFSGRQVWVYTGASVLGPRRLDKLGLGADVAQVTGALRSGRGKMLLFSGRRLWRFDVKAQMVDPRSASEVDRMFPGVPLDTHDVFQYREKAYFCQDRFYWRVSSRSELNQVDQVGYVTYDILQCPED
Sequence of active MMP3 (chain, as listed by the source): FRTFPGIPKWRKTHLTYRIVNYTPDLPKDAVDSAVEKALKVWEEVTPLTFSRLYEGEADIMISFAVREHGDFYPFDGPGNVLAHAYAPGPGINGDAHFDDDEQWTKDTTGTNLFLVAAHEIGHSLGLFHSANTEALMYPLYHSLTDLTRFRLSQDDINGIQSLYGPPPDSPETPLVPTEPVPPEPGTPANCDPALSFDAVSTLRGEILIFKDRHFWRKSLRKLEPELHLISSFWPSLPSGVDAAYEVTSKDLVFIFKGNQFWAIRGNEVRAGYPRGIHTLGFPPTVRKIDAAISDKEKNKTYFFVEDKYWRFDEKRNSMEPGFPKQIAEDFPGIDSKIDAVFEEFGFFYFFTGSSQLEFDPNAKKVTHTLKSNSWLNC

Substance | cleavage of α1-antitrypsin by Western blot (α1-antitrypsin) | activation of pro-MMP9 (appearance of the active MMP9 fragment by Li-Cor Western blot and increase in gelatinolytic activity) (Pro-MMP9)
active MMP9 | In the presence of active MMP9 alone, α1-antitrypsin was cleaved from the active form to the inactive form | 
active MMP3 |  | Both proteases activated MMP9 in a dose-dependent manner
active Pseudomonas elastase |  | Both proteases activated MMP9 in a dose-dependent manner
